Test results published in the supplement of paper PMC7877785.
± gives the uncertainty stated by the source.

Assay: self-splicing fitness, log relative to wild type (ln ratio); higher = more splicing; Tetrahymena group I intron in knt gene, E. coli kanamycin selection, DiMSum; sequences stand for … in CUCUCU…GGAGGGAAAAGUUAUCAGGCAUGCACCUGGUAGCUAGUCUUUAAACCAAUAGAUUGCAUCGGUUUAAAAGGCAAGACCGUCAAAUUGCGGGAAAGGGGUCAACAGCCGUUCAGUACCAAGUCUCAGGGGAAACUUUGAGAUGGCCUUGCAAAGGGUAUGGUAAUAAGCUGACGGACAUGGUCCUAACCACGCAGCCAAGUCCUAAGUCAACAGAUCUUCUGUUGAUAUGGAUGCAGUUCACAGACUAAAUGUCGGUCGGGGAAGAUGUAUUCUUCUCAUAAGAUAUAGUCGGACCUCUCCUUAAUGGGAGCUAGCGGAUGAAGUGAUGCAACACUGGAGCCGCUGGGAACUAAUUUGUAUGCGAAAGUAUAUUGAUUAGUUUUGGAGUACUCGUGGUCG
How it was run: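 The eight P1ex-region nucleotides of an intron in the knt kanamycin-resistance gene on pET-22b(+) were all randomised and the library put into E. coli BL21(DE3). Six replicate transformations were grown overnight at 37°C or 30°C on LB agar with or without 25 μg/mL kanamycin, together with 100 μg/mL carbenicillin, 50 μM IPTG and 0.2% rhamnose. Colonies were pooled and amplicon-sequenced on an Illumina HiSeq 2500. Fitness from DiMSum is the error-weighted combination of wild-type-normalised replicate fold changes, kanamycin over none.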

| Sequence | self-splicing fitness (ln) (30 °C) | self-splicing fitness (ln) (37 °C) |
| --- | --- | --- |
| ACCCAGCAAUAUUACGUCGU | -0.24 ± 0.039 | -0.318 ± 0.051 |
| ACCCAGCAAUAUUACGUGCU | -4.5 ± 0.23 | -1.67 ± 0.12 |
| ACCCAGCAAUAUUACGUGUC | -3.36 ± 0.099 | -1.75 ± 0.099 |
| ACCCAGCAAUAUUACGUUUA | -1.57 ± 0.066 | -1.01 ± 0.072 |
| ACCGAGCAAUAUUACGAACU | -2.13 ± 0.13 | -0.803 ± 0.14 |
| ACCGAGCAAUAUUACGAAUG | -2.51 ± 0.16 | -2.7 ± 0.44 |
| ACCGAGCAAUAUUACGAGGU | -2.42 ± 0.23 | -0.758 ± 0.2 |
| ACCGAGCAAUAUUACGAUGC | -1.97 ± 0.14 | -1.56 ± 0.14 |
| ACCGAGCAAUAUUACGCAGU | -3.67 ± 0.16 | -2.48 ± 0.16 |
| ACCGAGCAAUAUUACGCAUA | -2.42 ± 0.21 | -2.57 ± 0.2 |
| ACCGAGCAAUAUUACGCGCA | -2.06 ± 0.1 | -0.82 ± 0.078 |
| ACCGAGCAAUAUUACGCGUC | -3.17 ± 0.15 | -2.18 ± 0.22 |
| ACCGAGCAAUAUUACGCUAU | -2.77 ± 0.14 | -2.26 ± 0.14 |
| ACCGAGCAAUAUUACGCUCC | -2.85 ± 0.39 | -1.79 ± 0.44 |
| ACCGAGCAAUAUUACGGCAU | -1.09 ± 0.09 | -0.529 ± 0.11 |
| ACCGAGCAAUAUUACGGCCG | -2.57 ± 0.09 | -1.09 ± 0.1 |
| ACCGAGCAAUAUUACGGUAA | -2.6 ± 0.18 | -1.7 ± 0.12 |
| ACCGAGCAAUAUUACGGUGA | -3.07 ± 0.18 | -1.48 ± 0.13 |
| ACCGAGCAAUAUUACGGUUG | -3.88 ± 0.21 | -2.51 ± 0.16 |
| ACCGAGCAAUAUUACGUCCG | -4.36 ± 0.24 | -1.5 ± 0.14 |
| ACCGAGCAAUAUUACGUGUG | -2.5 ± 0.08 | -1.79 ± 0.079 |
| ACCGAGCAAUAUUACGUUCA | -1.34 ± 0.13 | -0.705 ± 0.1 |
| ACCGAGCAAUAUUACGUUUC | -4.37 ± 0.29 | -2.94 ± 0.32 |
| ACCUAGCAAUAUUACGAAUA | -2.75 ± 0.15 | -2.94 ± 0.18 |
| ACCUAGCAAUAUUACGACAC | -0.951 ± 0.1 | -0.536 ± 0.17 |

| Sequence | self-splicing fitness (ln) (30 °C) | self-splicing fitness (ln) (37 °C) |
| --- | --- | --- |
| ACCUAGCAAUAUUACGACCG | -1.16 ± 0.13 | 0.144 ± 0.12 |
| ACCUAGCAAUAUUACGAGGA | -2.16 ± 0.12 | -0.9 ± 0.12 |
| ACCUAGCAAUAUUACGAGUA | -2.47 ± 0.14 | -1.16 ± 0.12 |
| ACCUAGCAAUAUUACGAGUC | -2.53 ± 0.3 | -2.78 ± 0.48 |
| ACCUAGCAAUAUUACGAUAU | -1.58 ± 0.092 | -0.443 ± 0.12 |
| ACCUAGCAAUAUUACGAUGC | -1.22 ± 0.078 | -0.172 ± 0.081 |
| ACCUAGCAAUAUUACGCACU | -0.127 ± 0.085 | 0.3 ± 0.12 |
| ACCUAGCAAUAUUACGCAGU | -2.58 ± 0.17 | -1.53 ± 0.19 |
| ACCUAGCAAUAUUACGCAUA | -2 ± 0.2 | -1.85 ± 0.16 |
| ACCUAGCAAUAUUACGCGCA | -0.569 ± 0.08 | -0.709 ± 0.087 |
| ACCUAGCAAUAUUACGCGCC | -0.396 ± 0.09 | -0.477 ± 0.12 |
| ACCUAGCAAUAUUACGCGCG | -0.971 ± 0.13 | 0.377 ± 0.13 |
| ACCUAGCAAUAUUACGCGGC | -3.53 ± 0.33 | -1.38 ± 0.17 |
| ACCUAGCAAUAUUACGCGGU | -4.32 ± 0.46 | -2.48 ± 0.31 |
| ACCUAGCAAUAUUACGCGUC | -2.91 ± 0.27 | -0.412 ± 0.14 |
| ACCUAGCAAUAUUACGCUAC | -2.93 ± 0.13 | -2.02 ± 0.15 |
| ACCUAGCAAUAUUACGCUCA | -1.71 ± 0.14 | -0.169 ± 0.17 |
| ACCUAGCAAUAUUACGCUGC | -2.42 ± 0.12 | -1.06 ± 0.13 |
| ACCUAGCAAUAUUACGCUUU | -1.26 ± 0.055 | -0.293 ± 0.081 |
| ACCUAGCAAUAUUACGGGAU | -2.07 ± 0.1 | -0.904 ± 0.1 |
| ACCUAGCAAUAUUACGGUCG | -3.53 ± 0.17 | -2.11 ± 0.14 |
| ACCUAGCAAUAUUACGUAAA | -2.13 ± 0.096 | -1.47 ± 0.12 |
| ACCUAGCAAUAUUACGUGAA | -2.1 ± 0.097 | -1.18 ± 0.12 |
| ACCUAGCAAUAUUACGUGCA | -2.89 ± 0.12 | -1.25 ± 0.1 |
| ACGAAGCAAUAUUACGACAA | -0.701 ± 0.2 | -0.985 ± 0.19 |

| Sequence | self-splicing fitness (ln) (30 °C) | self-splicing fitness (ln) (37 °C) |
| --- | --- | --- |
| ACGAAGCAAUAUUACGAGCG | -0.87 ± 0.075 | -0.411 ± 0.12 |
| ACGAAGCAAUAUUACGAGUA | -3.49 ± 0.21 | -2.73 ± 0.17 |
| ACGAAGCAAUAUUACGAUAA | -1.62 ± 0.15 | -1.39 ± 0.14 |
| ACGAAGCAAUAUUACGAUCA | -1.08 ± 0.12 | -0.536 ± 0.12 |
| ACGAAGCAAUAUUACGAUUA | -1.36 ± 0.077 | -0.917 ± 0.072 |
| ACGAAGCAAUAUUACGCACG | -3.26 ± 0.18 | -2.22 ± 0.17 |
| ACGAAGCAAUAUUACGCCAU | -4.46 ± 0.39 | -3.02 ± 0.26 |
| ACGAAGCAAUAUUACGCGCA | -0.419 ± 0.068 | 0.542 ± 0.1 |
| ACGAAGCAAUAUUACGGCAU | -0.981 ± 0.1 | 0.219 ± 0.11 |
| ACGAAGCAAUAUUACGGCUG | -0.78 ± 0.052 | -0.0127 ± 0.084 |
| ACGAAGCAAUAUUACGGGAU | -3.47 ± 0.13 | -1.8 ± 0.14 |
| ACGAAGCAAUAUUACGGGGU | -3.47 ± 0.15 | -2.33 ± 0.17 |
| ACGAAGCAAUAUUACGUAAG | -2.37 ± 0.1 | -1.05 ± 0.12 |
| ACGAAGCAAUAUUACGUAAU | -2.57 ± 0.087 | -1.23 ± 0.088 |
| ACGAAGCAAUAUUACGUCAA | -3.35 ± 0.17 | -3.51 ± 0.22 |
| ACGAAGCAAUAUUACGUCAG | -3.43 ± 0.19 | -1.1 ± 0.12 |
| ACGAAGCAAUAUUACGUCUU | -2.32 ± 0.17 | -1.91 ± 0.16 |
| ACGAAGCAAUAUUACGUGCC | -1.6 ± 0.079 | -0.89 ± 0.1 |
| ACGCAGCAAUAUUACGAACG | -0.387 ± 0.076 | -0.234 ± 0.091 |
| ACGCAGCAAUAUUACGAAUG | -2.51 ± 0.086 | -1.2 ± 0.097 |
| ACGCAGCAAUAUUACGACAU | -0.318 ± 0.011 | 0.305 ± 0.032 |
| ACGCAGCAAUAUUACGACUA | -1.15 ± 0.072 | -0.183 ± 0.064 |
| ACGCAGCAAUAUUACGAUGA | -1.1 ± 0.064 | -0.521 ± 0.068 |
| ACGCAGCAAUAUUACGCAAA | -2.51 ± 0.13 | -1.77 ± 0.14 |
